{"source": "paper PMC4877379", "note": "Residue numbers refer to the chain shown, from its start.", "data": [{"target": "T1, CodY (B. cereus INRA C3) (Bacillus cereus INRA C3) (UniProt Q819X8)", "T1 sequence": "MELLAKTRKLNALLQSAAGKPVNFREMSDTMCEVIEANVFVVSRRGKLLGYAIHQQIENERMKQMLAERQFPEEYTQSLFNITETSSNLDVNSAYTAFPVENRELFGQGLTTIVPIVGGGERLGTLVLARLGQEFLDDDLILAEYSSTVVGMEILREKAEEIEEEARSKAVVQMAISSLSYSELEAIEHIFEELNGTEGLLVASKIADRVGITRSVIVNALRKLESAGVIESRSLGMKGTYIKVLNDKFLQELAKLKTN", "assay": "EMSA", "units": {"Kd": "nM"}, "values": [{"substance": "PinhA1 INRA C3", "Kd": 250}, {"substance": "AAATTATCGATCGTAATCGACAAAATTTTTCTATTTACGCATTAAAAATTTAATGTTTTAATGAACAACATAACTGGTATGACCAGACAGAAAGGATAAGGTTACGCTAATAGGAATTATAGTGAAGTTGTAAGTAACATTATGTTGAAAATATTTTTCGAATAGTCTATTTATTTACAAGAGGTCAAGAATCAAGTTTGTAATAAACGTGTTCTAAGTTTCTGCATAACAAAAGTGAAGTTATTCCGCAATAAAAGTATAAGCGATGTACAGTATAATTTTACCTTTTTTAGTCTAGTAAGGAGTTTGCTGA (double strand) [Phbl-2]", "Kd": 250}, {"substance": "AATAATGATATTAGGATGTTTTGTGAAAAAATCAACAATATAACATATATTACTAAATATATCTACATTTTATGCAATTATACATAACTAAATAAAGGTAAAAAAGTATAAAAAGACCTATTATATTATTCTATAAGTATTTTTTCTAAAATAAAATTTCTCGGTTGAGCTAAAATAGTTATTTTTAACCGTATACACATTAATTTGTAATCATTACAATTACAGAAATGAAATTTACGGATAACTATATTTGTATAATTTTTTTCGGTTCATATTTTTATTTAACAGTAAATTATCGATCGTAATC (double strand) [Phbl-1]", "Kd": 700}, {"substance": "PcytK-2", "Kd": "> 1000"}, {"substance": "ATCCGAATTCTGTATATGCTATGCATAATTGCATACGGGGTTAAAAATTATATCAATATAATTTTACCGGTTGTTTGCAAGTAGTGTTTTCTGTTGTGATATGTAGATATTTCAATCGATAAAGTGAATCGGATTATATTTTGAAATAAGGACATGAAAGCTTGAAAATAAAGGGAATGAAAATACTTCTTTACGTTATATAAACAGCTGTGTTTAAATGACCTTACAGTACAAAACTTATATGAAAACAAAACGAAATTTCATATTTACGTATGTTGTTTGGTTTAAAATGAATAATATTTTTATGTAATATATTCACTGTGTGAATGTGGGAATTTCGATGAAATAGAAAATTTATACAATATTATTCATACTAAACACATATGAAAAGTTTTATAACAATAAGTAAGTACTGTAGCAATAACAGTTGGGAGAGATGGTTCATACATAGATCACGGTGAGAACGTTCTCTATTTTAACCATCTCAAATTATGGGCAAGAAAATAGAATAATAAAATGCGATAGTAATAGTTGCTAATACATAGGAGGAGTTAAAGTGGATCCGACT (double strand) [Pnhe INRA C3]", "Kd": 125}, {"substance": "TCTAGTAAGGAGTTTGCTGATAAAACTAAGAGTAATATTATTAAATTTAAATTAAACAATGTTATGGCAAGATTAACTGTAAGCATTGGTTTATTGATTCTCGCGGTTCTGTAAGTTAAACCGCAATTCTAGGGAAGAATTACACATTTACTATTCATAGGGTGCTTGATTCAAATATAGTTAATAAATTTTTGTTATTTATATTTGAAAAAATAGAGTATCGAAGTGAGAGGTAAGTAAAATCCTTACATTCTATTAGAAGTAAAAAATAACGATATTATCCTATCTGAAAGATTTCTCCTTCTTAATCAGTTTACAAAGAGAGAGGTCATACAAGTTATATGAATTAAGTTATAAAAACAATGGTAAAGGAGTGTACGGAAT (double strand) [Phbl-3]", "Kd": 700}, {"substance": "CAAGTTTGTAATAAACGTGTTCTAAGTTTCTGCATAACAAAAGTGAAGTTATTCCGCAATAAAAGTATAAGCGATGTACAGTATAATTTTACCTTTTTTAGTCTAGTAAGGAGTTTGCTGATAAAACTAAGAGTAATATTATTAAATTTAAATTAAACAATGTTATGGCAAGATTAACTGTAAGCATTGGTTTATTGATTCTCGCGGTTCTGTAAGTTAAACCGCAATTCTAGGGAAGAATTACACATTTACTATTCATAGGGTGCTTGATTCAAATATAGTTAATAAATTTTTGTTATTTATATTTGAAAAAATAGAGTATCGAAGTGAGAGG (double strand) [Phbl-4]", "Kd": 700}]}, {"target": "T2, CodY (B. cytotoxicus CVUAS 2833) (Bacillus cytotoxicus CVUAS 2833) (UniProt A7GRF8)", "T2 sequence": "T1 sequence with S78N, I82V, A94E, R103K, E104D, Q133R, S147A, Q251H", "assay": "EMSA", "units": {"Kd": "nM"}, "values": [{"substance": "PcytK-1", "Kd": "> 1000"}]}]}
